From publication PMC4772501 (The Journal of Cell Biology, 2016) come the findings set out here.

Sequences and labels used below:
B3: (His)6Spr3 (natural protein)
chain: MKSKGSRLSTDCPVEFPKIVSGFAEEVKIRRQSSQGQYAVDSHPPKSPELKHRRQRSSSFVNGKCRNRDLPLLDNKKAQEINTNSHGQDIGIKNLPRQRELLNAKNGIDFTLMVAGQSGLGKTTFINSLFSTSLIDDDIKENKPIIRYKSIVEGDGTHLNFNVIDTPGFGNNMDNAFTWRTMVNYIDEEIRSYIFQEEQPDRTKMVDNRVHCCLYFLRPSNKGIDTLDVVTMKKLAKRVNLIPVIAKSDLLTKEELKNFKTQVREIIRVQDIPVCFFFGDEVLNATQDIFQKYPFSIIASNEYIFNEKGEKVKGRQYKWGAVDIENEKYCDFKILQKTIFDWNLIDLVESTEDYYEKCRSEMLRTRLLKARDCLTTKSVDITEEQRKFLEEEMNFDEIEENKLKNYKCYEIINKTVMDKVATEWDPEFITRQLEAKKKFNELSNREISKFRDWKKSLFMEQENFNQEIEQLNHKLENLQLECQDLEYKLLIGKSSNSHSTDSATLVNVHIKR

For series [1], the target named is B3. The series is described as follows: negative-stain EM, single-particle class averages.
The target of series [2] is B3. The series can be described thus: pull-down.
For series [3], the target named is T1, Cdc3 (S. cerevisiae, UniProt P32457 1-520).
T1 sequence: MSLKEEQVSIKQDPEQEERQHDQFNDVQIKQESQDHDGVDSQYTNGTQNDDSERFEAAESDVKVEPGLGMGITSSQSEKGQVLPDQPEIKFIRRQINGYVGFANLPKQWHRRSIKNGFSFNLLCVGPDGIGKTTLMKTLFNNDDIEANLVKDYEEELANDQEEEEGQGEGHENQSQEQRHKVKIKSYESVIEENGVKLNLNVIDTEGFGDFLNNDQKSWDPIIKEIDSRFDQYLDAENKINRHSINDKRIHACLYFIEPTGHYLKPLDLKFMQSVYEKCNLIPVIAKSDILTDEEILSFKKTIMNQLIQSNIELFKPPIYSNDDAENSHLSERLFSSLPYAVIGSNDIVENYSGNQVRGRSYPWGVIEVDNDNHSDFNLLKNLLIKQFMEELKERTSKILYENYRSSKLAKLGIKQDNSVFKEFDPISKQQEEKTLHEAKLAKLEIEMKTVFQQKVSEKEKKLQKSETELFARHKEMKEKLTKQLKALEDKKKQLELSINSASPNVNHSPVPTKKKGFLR
The series can be described thus: negative-stain EM, single-particle class averages.

Series [4] deals with the molecule itself. The series is described as follows: negative-stain EM, single-particle class averages.
In series [5] the target is T1, Cdc3. The series is described as follows: pull-down.

B1: Spr28 (natural protein)
chain: MFPMKDHSALEQHTLSRDELRRRKGYKKGLQLSILLLGEKGSGKSTFLNNLCGQDISLSDGDYDDDDDKVTNNVTPENGNAIEDIDPGYKTAHLSPGLKLVTRRVYLNDELGVPITLDIILFPGCGDNVDNSQSSVVIKNYLDQQFANVLKEEVRIKRNTKETDGRPHVCLYFLKSTPRGVKKFDIELMKTICDKVNLIPIIPKADGLTETELNLHKDIVRQEISQNNIRVFDFKSDTLGETLALYDMDIDSSSAKSKYDNDTKIKEISPFAIVCSKTFNKNSENRVEHIRTYEWGSLVVEDQNTSDFIYLKAILLGSHLQELKDVTNNVLYENYRAKVLTEKKNNYDIPNYSYIDETSRGSVSNVSTRRNSASRTLGNPDTNDENAYQIHKEIDEKNRIIEDYQRKIDLLEKMLAAPHQNKV
B1: the binding result with (His)6Spr3 [1] is listed as “binds”.

B2: Cdc10 (natural protein)
chain: MDPLSSVQPASYVGFDTITNQIEHRLLKKGFQFNIMVVGQSGLGKSTLINTLFASHLIDSATGDDISALPVTKTTEMKISTHTLVEDRVRLNINVIDTPGFGDFIDNSKAWEPIVKYIKEQHSQYLRKELTAQRERFITDTRVHAILYFLQPNGKELSRLDVEALKRLTEIANVIPVIGKSDTLTLDERTEFRELIQNEFEKYNFKIYPYDSEELTDEELELNRSVRSIIPFAVVGSENEIEINGETFRGRKTRWSAINVEDINQCDFVYLREFLIRTHLQDLIETTSYIHYEGFRARQLIALKENANSRSSAHMSSNAIQR
On to B2, for which the binding result (with (His)6Spr3 [2]; in the series with Cdc3 [3]; in series [4]) was “binds” each time. With B3, the binding result in the series with Cdc3 [5] is reported as “binds”.
